T1: GST-RGL2 (Arabidopsis, UniProt Q8GXW1 1-547)
T1 construct: RGL2 of Arabidopsis; coding region cloned into pGEX-4T-1; source: E. coli Rosetta (DE3), purified (Glutathione Sepharose beads); not shown: GST, N-terminal, kept
T1 sequence (looked up): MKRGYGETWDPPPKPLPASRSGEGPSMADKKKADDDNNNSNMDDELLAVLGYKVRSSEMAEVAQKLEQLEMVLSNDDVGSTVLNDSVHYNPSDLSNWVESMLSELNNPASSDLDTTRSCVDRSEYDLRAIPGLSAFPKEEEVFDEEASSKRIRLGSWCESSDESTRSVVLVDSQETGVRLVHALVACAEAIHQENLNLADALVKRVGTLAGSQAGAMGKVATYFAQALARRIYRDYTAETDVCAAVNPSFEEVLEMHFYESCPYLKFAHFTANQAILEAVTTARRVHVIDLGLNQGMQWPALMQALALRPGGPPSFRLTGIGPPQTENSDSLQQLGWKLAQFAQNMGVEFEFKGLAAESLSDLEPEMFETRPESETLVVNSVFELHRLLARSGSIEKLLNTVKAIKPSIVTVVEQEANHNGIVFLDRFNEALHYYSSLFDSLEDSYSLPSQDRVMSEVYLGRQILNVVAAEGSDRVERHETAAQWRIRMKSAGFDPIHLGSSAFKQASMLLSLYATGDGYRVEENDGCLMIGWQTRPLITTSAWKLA

B1: His-NF-YC9 (natural protein, Arabidopsis, UniProt Q8L4B2 1-231, looked up)
chain: MDQQDHGQSGAMNYGTNPYQTNPMSTTAATVAGGAAQPGQLAFHQIHQQQQQQQLAQQLQAFWENQFKEIEKTTDFKNHSLPLARIKKIMKADEDVRMISAEAPVVFARACEMFILELTLRSWNHTEENKRRTLQKNDIAAAVTRTDIFDFLVDIVPREDLRDEVLGSIPRGTVPEAAAAGYPYGYLPAGTAPIGNPGMVMGNPGGAYPPNPYMGQPMWQQQAPDQPDQEN
notes: NF-YC9 of Arabidopsis; coding region cloned into pQE30; source: E. coli Rosetta (DE3), purified (Ni-NTA agarose); not shown: His, N-terminal, kept
B2: His-NF-YC3 (natural protein, Arabidopsis, UniProt Q9ZVL3 1-217, looked up)
chain: MDQQGQSSAMNYGSNPYQTNAMTTTPTGSDHPAYHQIHQQQQQQLTQQLQSFWETQFKEIEKTTDFKNHSLPLARIKKIMKADEDVRMISAEAPVVFARACEMFILELTLRSWNHTEENKRRTLQKNDIAAAVTRTDIFDFLVDIVPREDLRDEVLGGVGAEAATAAGYPYGYLPPGTAPIGNPGMVMGNPGAYPPNPYMGQPMWQQPGPEQQDPDN
notes: NF-YC3 of Arabidopsis; coding region cloned into pQE30; source: E. coli Rosetta (DE3), purified (Ni-NTA agarose); not shown: His, N-terminal, kept
B3: His-NF-YC4 (natural protein, Arabidopsis, UniProt Q9FMV5 1-250, looked up)
chain: MDNNNNNNNQQPPPTSVYPPGSAVTTVIPPPPSGSASIVTGGGATYHHLLQQQQQQLQMFWTYQRQEIEQVNDFKNHQLPLARIKKIMKADEDVRMISAEAPILFAKACELFILELTIRSWLHAEENKRRTLQKNDIAAAITRTDIFDFLVDIVPREEIKEEEDAASALGGGGMVAPAASGVPYYYPPMGQPAVPGGMMIGRPAMDPSGVYAQPPSQAWQSVWQNSAGGGDDVSYGSGGSSGHGNLDSQG
notes: NF-YC4 of Arabidopsis; coding region cloned into pQE30; source: E. coli Rosetta (DE3), purified (Ni-NTA agarose); not shown: His, N-terminal, kept

The binders below were run against T1, GST-RGL2 (assay: pull-down; 2 ug of His-NF-YCs incubated with GST or GST-RGL2 immobilised on Glutathione Sepharose beads; 50 mM Tris-HCl pH 8.0, 100 mM NaCl, 1 mM EDTA; 4 °C, 2 h; blots with anti-His and anti-GST). Conditions: both partners purified.

binding result	Binder
binds	B1
binds	B2
binds	B3

From publication PMC5027291, “The NF-YC–RGL2 module integrates GA and ABA signalling to regulate seed germination in Arabidopsis” (Nature Communications, 2016)
